# Experimental data: US20080305041A1, “Pf4 Pharmacophores and Their Uses” (BIOQUANTA CORP., priority 2004, published 2008)
# How the values were obtained:
# PF4 receptor [1] = assay: PF4 receptor activation by PF4-derived peptides
# PF4 receptor [2] = assay: PF4 receptor binding / competition of PF4-derived peptides
# HUVEC [3] = assay: Angiogenic activity of mutant PF4 polypeptides in HUVEC cells; assay type: cell-based, Human; details: for antiangiogenic properties/activity of PF4 (effect of the mutation): Table 4 column Function
# Method: (§1) Inhibition of DNA synthesis was measured by [^3H]-thymidine incorporation assay. Cells were plated at 15,000 cells per well in a 24 well-plate in 0.5 ml medium containing 2.5% FCS and allowed to attach for 4 hours at 37° C. Proliferation was then induced by addition of 10 ng/ml of FGF-2, VEGF165 or VEGF121. Increasing concentrations of purified recombinant PF4 proteins were added to some wells and HUVEC were further incubated for 48 hours. [^3H]-thymidine (1 μCi/well) was added during the last 20 hours of incubation. Cells were washed twice with PBS and treated with ice-cold 10% (w/v) trichloroacetic acid for 30 minutes. The resulting precipitates were solubilized with 1 M NaOH and incorporated radioactivity was measured in a Beckman LS-6500 multi-purpose scintillation counter.
# HUVEC migration was evaluated in a modified Boyden chamber assay. Transwell cell culture chamber inserts with porous polycarbonate filters ([…]) were coated with 0.2% gelatin. HUVEC suspended in medium supplemented with 2.5% FCS were added to the inserts at 4×10^4 cells per well. The inserts were placed over chambers containing a chemotactic stimulus (10 ng/ml VEGF165), and cells were allowed to migrate for 4 hours at 37° C. in a CO2 incubator. For inhibition experiments, recombinant PF4 proteins were added to both the lower and upper chambers. After incubation, filters were rinsed with PBS, fixed with 1% paraformaldehyde and stained with hematoxyline of Harris (EMD Chemicals Inc. Gibbstown, N.J.).
# (§2) The upper surfaces of the filters was scraped with a cotton swab to remove the nonmigrant cells. The […] in a optical microscope at high powered (×200) magnification, and the number of cells within the microscope visualization field was recorded. Each experimental point was performed in triplicate, and 20 visual fields were analyzed per filter.
# Next, the PF4 surface was mapped using site-directed mutagenesis. In particular, a series of mutant PF4 polypeptides was generated, and their angiogenic activity in HUVEC cells was investigated using assays such as those described in Section 6.1, above. Table 3 below lists amino acid sequences of the PF4 polypeptides generated, along with each polypeptide designation and sequence identification number (SEQ ID NO.). The first sequence, which is designated WTPF4, corresponds to the wild-type, mature PF4 amino acid sequence that is also depicted in FIG. 1C (SEQ ID NO:1). The other sequences depicted in Table 3 comprise one or more amino acid substitutions, indicated by bold-faced, underlined type in the amino acid sequence.
# HUVEC [4] = assay: HUVEC migration assay (modified Boyden chamber); assay type: cell-based, Human
# Method: (§3) Human umbilical vein endothelial cells (HUVEC) were isolated by collagenase (Roche Diagnostics) digestion as described previously (Jaffe et al., J Clin Invest. 1973; 85(11):2745-56).
# (§4) Cells were grown in M199 medium containing 15% fetal calf serum (FCS), 5% human serum, 2 mM glutamine, 50 U/ml penicillin, 50 μg/ml streptomycin, 2.5 μg/ml amphotericin B, and 15 mM HEPES. Cultures were maintained at 37° C. amd 5% CO2 in humidified atmosphere. Every 3-4 days, the cultures were harvested by trypsin treatment, diluted, replated and grown to confluence. HUVEC grown until confluence from the second or third passage are preferably used for experiments described here.
# HUVEC migration was evaluated in a modified Boyden chamber assay. Transwell cell culture chamber inserts with porous polycarbonate filters ([…]) were coated with 0.2% gelatin. HUVEC suspended in medium supplemented with 2.5% FCS were added to the inserts at 4×10^4 cells per well. […]
# as §2
# HUVEC [5] = assay: Endothelial cell proliferation assay ([3H]-thymidine incorporation); assay type: cell-based, Human; details: stimulus not given
# Method: as §3, §4
# as §1, with “Cells were washed twice with PBS and treated with ice-cold 10% (w/v) trichloroacetic acid for 30 minutes.” left out
molecule,measurement,setting,value
"P37-56: peptide PTAQLIATLKNGRKISLDLQ (SEQ ID NO:158), P34-56 without capping box [Mutant P37-56]",activation of PF4 receptor,PF4 receptor [1],does not activate
"P35-53: peptide PSPTAQLIATLKNGRKISL (SEQ ID NO:160), P34-53 with His2 removed [Mutant P35-53]",binding to PF4 receptor,PF4 receptor [2],does not bind to
same,activation of PF4 receptor,PF4 receptor [1],does not bind to or activate
"P34-53: peptide PHSPTAQLIATLKNGRKISL (SEQ ID NO:159), derived from residues 34-53 of mature PF4 [Mutant P34-53]",competition against P34-56 for target binding,PF4 receptor [2]; competitor P34-56,effectively competes
same,competition with PF4 for binding to the PF4 receptor,PF4 receptor [2]; competitor PF4,effectively competes
same,activation of PF4 receptor,PF4 receptor [1],does not activate
"P34-56: peptide PHSPTAQLIATLKNGRKISLDLQ (SEQ ID NO:157), derived from residues 34-56 of mature PF4 [Mutant P34-56]",binding to PF4 receptor,PF4 receptor [2],bind to
same,activation of PF4 receptor,PF4 receptor [1],activate
"PF4-M10H: mutant PF4 polypeptide SEQ ID NO:19; single mutant T47A, without HBD (protein, listed as Homo sapiens) EAEEDGDLQCLCVKTASQVRPRHITSLEVIKAGPHCPTAQLIATLKNGRKICLDLQAPLYQEIIQELLES",antiangiogenic properties/activity of PF4 (effect of the mutation),HUVEC [3],Mutation does not suppress
"PF4-M13H: mutant PF4 polypeptide SEQ ID NO:25; single mutant V50S, without HBD (protein, listed as Homo sapiens) EAEEDGDLQCLCVKTTSQSRPRHITSLEVIKAGPHCPTAQLIATLKNGRKICLDLQAPLYQEIIQELLES",antiangiogenic properties/activity of PF4 (effect of the mutation),HUVEC [3],Mutation does not suppress
"PF4-M1: mutant PF4 polypeptide SEQ ID NO:2; heparan sulfate binding domain (HBD) absent (protein, listed as Homo sapiens) EAEEDGDLQCLCVKTTSQVRPRHITSLEVIKAGPHCPTAQLIATLKNGRKICLDLQAPLYQEIIQELLES",inhibition of cell migration (HUVEC),HUVEC [4],PF4-M1 also inhibits cell
same,antiangiogenic properties/activity of PF4 (effect of the mutation),HUVEC [3],PF4-M1 is antiangiogenic
"PF4-M2: mutant PF4 polypeptide SEQ ID NO:3; tests importance of Cys residues (protein, listed as Homo sapiens) EAEEDGDLQSLCVKTTSQVRPRHITSLEVIKAGPHSPTAQLIATLKNGRKICLDLQAPLYKKIIKKLLES",antiangiogenic properties/activity of PF4 (effect of the mutation),HUVEC [3],Complete loss of activity due
"PF4-M2H: mutant PF4 polypeptide SEQ ID NO:4; tests importance of Cys residues (protein, listed as Homo sapiens) EAEEDGDLQSLCVKTTSQVRPRHITSLEVIKAGPHSPTAQLIATLKNGRKICLDLQAPLYQEIIQELLES",antiangiogenic properties/activity of PF4 (effect of the mutation),HUVEC [3],Complete loss of activity due
"PF4-M3: mutant PF4 polypeptide SEQ ID NO:5; DLQ motif replaced by IL8-like motif, carrying HBD (protein, listed as Homo sapiens) EAEEDGDLRCLCVKTTSQVRPRHITSLEVIKAGPHCPTAQLIATLKNGRKICLDLQAPLYKKIIKKLLES",effect on HUVEC compared with WTPF4,HUVEC [3],sulfate. It has the same effect
"PF4-M3H: mutant PF4 polypeptide SEQ ID NO:6; PF4-M3 mutant without HBD (protein, listed as Homo sapiens) EAEEDGDLRCLCVKTTSQVRPRHITSLEVIKAGPHCPTAQLIATLKNGRKICLDLQAPLYQEIIQELLES",inhibition of the proliferation of HUVEC cells,HUVEC [5],This mutant cannot inhibit
same,inhibition of cell migration (HUVEC),HUVEC [4],This mutant cannot inhibit
same,antiangiogenic properties/activity of PF4 (effect of the mutation),HUVEC [3],cancels the antiangiogenic
"PF4-M5: mutant PF4 polypeptide SEQ ID NO:9; triple mutant L42S, V44Q, T47A carrying HBD (protein, listed as Homo sapiens) EAEEDGDLQCSCQKTASQVRPRHITSLEVIKAGPHCPTAQLIATLKNGRKICLDLQAPLYKKIIKKLLES",antiangiogenic properties/activity of PF4 (effect of the mutation),HUVEC [3],Mutation decreases the
"PF4-M5H: mutant PF4 polypeptide SEQ ID NO:10; triple mutant L42S, V44Q, T47A, without HBD (protein, listed as Homo sapiens) EAEEDGDLQCSCQKTASQVRPRHITSLEVIKAGPHCPTAQLIATLKNGRKICLDLQAPLYQEIIQELLES",antiangiogenic properties/activity of PF4 (effect of the mutation),HUVEC [3],Decreases the antiangiogenic
"PF4-M6: mutant PF4 polypeptide SEQ ID NO:11; triple mutant Q49A, V50S, H54A carrying HBD (protein, listed as Homo sapiens) EAEEDGDLQCLCVKTTSASRPRAITSLEVIKAGPHCPTAQLIATLKNGRKICLDLQAPLYKKIIKKLLES",antiangiogenic properties/activity of PF4 (effect of the mutation),HUVEC [3],Mutation decreases the
